US20220401557A1 (Chugai, published 2022)
Where a chain is given by its changes, count along the chain named. Blank lines part the entries; values can stand above or below the binder they belong to. Non-standard residues stand in square brackets, D forms with d. No end group written: not given here. pGlu = O=C1CC[C@@H](C(=O)O)N1

Key:
CD3εδ heterodimer = target: T1, CD3εδ heterodimer (Homo sapiens (Human), UniProt P07766 22-126; P04234 22-100); assay: SPR, Biacore T200; antibody captured on Protein G (CM3 chip), CD3εδ heterodimer as analyte, single cycle kinetics, 37 C
T1 construct: also called CD3ε8
T1 sequence (P07766 other isoform, or with tags, fused parts or gaps mutant limits assumed, chain 1 of 2): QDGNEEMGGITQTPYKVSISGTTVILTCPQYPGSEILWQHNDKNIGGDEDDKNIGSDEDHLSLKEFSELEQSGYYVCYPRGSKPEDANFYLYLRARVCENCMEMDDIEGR
T1 sequence (P04234 other isoform, or with tags, fused parts or gaps mutant limits assumed, chain 2 of 2): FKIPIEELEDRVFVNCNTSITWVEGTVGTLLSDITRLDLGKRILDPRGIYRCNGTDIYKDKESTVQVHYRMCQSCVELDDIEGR
Procedure: The activity of binding to the CD3εδ heterodimer was measured for: the rat anti-CD3 antibody containing as the variable region the heavy chain variable region (SEQ ID NO: 10) and the light chain variable region (SEQ ID NO: 11) described in Reference Example 1; a combination of a human anti-CD3 antibody and a rat anti-CD3 antibody which contains as the variable region a heavy chain variable region (SEQ ID NO: 12) and a light chain variable region (SEQ ID NO: 13) where the light chain has been humanized by a method known to those skilled in the art; a humanized anti-CD3 antibody which contains as the variable region a heavy chain variable region (SEQ ID NO: 12) and a light chain variable region (SEQ ID NO: 13), which have been humanized by a method known to those skilled in the art; and AN121 which contains as the variable region a heavy chain variable region (SEQ ID NO: 43) and a light chain variable region (SEQ ID NO: 13). The heavy chain variable regions were fused with F760mnP17 (SEQ ID NO: 39) used as the constant region and the light chain variable regions were fused with the Kappa chain (SEQ ID NO: 36) used as the constant region, and the antibodies were expressed according to the method of Reference Example 2.
The activity of binding to the CD3εδ heterodimer was assessed using BiacoreT200. Specifically, Protein G was immobilized onto a CM3 chip by a method known to those skilled in the art, and antibodies to be evaluated were bound to the immobilized Protein G. Then, the CD3εδ heterodimer prepared at 4000, 1000, 250, 62.5, 15.6, and 3.9 nM was bound thereto, and the binding was evaluated using the single cycle kinetics mode. Measurements were taken under conditions of 20 mM ACES, 150 mM NaCl, and pH7.4 at 37° C.

[1] = target: CD3 on NFAT-RE-luc2-Jurkat cells (human, UniProt P07766 23-207); assay: cell-based or functional assay
Chain of CD3 on NFAT-RE-luc2-Jurkat cells (P07766 23-207): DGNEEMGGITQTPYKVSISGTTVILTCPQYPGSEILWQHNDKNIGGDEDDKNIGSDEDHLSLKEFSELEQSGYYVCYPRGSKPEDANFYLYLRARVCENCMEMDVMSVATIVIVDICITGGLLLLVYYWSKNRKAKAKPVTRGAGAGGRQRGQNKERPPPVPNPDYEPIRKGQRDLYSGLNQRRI

[2] = target: T2, synthetic peptide (epitope peptide) corresponding to the sequence from the N terminus to position 15 of CD3; assay: X-ray crystal structure of the Fab with the epitope peptide
T2 construct: also called XDGNEEMGGITQTPY
T2 peptide: [pGlu]DGNEEMGGITQTPY
Procedure: Furthermore, a sample was prepared by adding, to the obtained anti-CD3 antibody Fab fragment, a synthetic peptide (epitope peptide) which corresponds to the sequence from the N terminus to position 15 of CD3 and shown in SEQ ID NO: 14 below: XDGNEEMGGITQTPY (X: L-pyroglutamic acid) (SEQ ID NO: 14) to become 2 mM. The vapor diffusion method was used to obtain crystals from the sample by allowing the sample to stand at 20° C. under reservoir conditions of 100 mM MES buffer at pH7.0, 0.91% PEG3350, and 1.0 M sodium citrate tribasic dihydrate. These crystals were subject to X-ray crystallography based on the above-mentioned crystal structure of the anti-CD3 antibody Fab fragment alone according to a method known to those skilled in the art to obtain the crystal structure of a complex of the anti-CD3 antibody Fab fragment and the epitope peptide from the diffraction intensity data at 25 to 3.5 angstrom resolution. Its crystallographic reliability factor R (R factor) and Free R value (R free) were 18.55% and 26.53%, respectively.

B3: hCE115HAuPA20/GLS//GCH065 (bispecific antibody, human IgG1, kappa, N297A)
heavy 1: QDGNEEMGGITQTPYKVSISLSGRSDNHGGGSQVQLVESGGGVVQPGRSLRLSCAASGFTFSNAWMHWVRQAPGKGLEWVAQIKAKSNNYATYYAESVKGRFTISRDDSKNSLYLQMNSLKTEDTAVYYCRYVHYGAYYGVDAWGQGTTVTVSSASTKGPSVFPLAPSSKSTSGGTAALGCLVKDYFPEPVTVSWNSGALTSGVHTFPAVLQSSGLYSLSSVVTVPSSSLGTQTYICNVNHKPSNTKVDKKVEPKSCDKTHTCPPCPAPELRGGPKVFLFPPKPKDTLMISRTPEVTCVVVDVSHEDPEVKFNWYVDGVEVHNAKTKPREEQYASTYRVVSVLTVLHQDWLNGKEYKCKVSNKALPAPIEKTISKAKGQPREPQVYTLPPSRKEMTKNQVSLTCLVKGFYPSDIAVEWESNGQPENNYKTTPPYLDSDGSFFLYSKLTVDKSRWQQGNVFSCSVMHEALHNHYTQKSLSLSP
light 1: DIVMTQSPLSLPVTPGEPASISCRSSQSLVHSNRNTYLHWYQQKPGQAPRLLIYKVSNRFSGVPDRFSGSGSGTDFTLKISRVEAEDVGVYYCGQGTQVPYTFGQGTKLEIKRTVAAPSVFIFPPSDEQLKSGTASVVCLLNNFYPREAKVQWKVDNALQSGNSQESVTEQDSKDSTYSLSSTLTLSKADYEKHKVYACEVTHQGLSSPVTKSFNRGEC
heavy 2: QVQLVQSGAEVKKPGASVTVSCKASGYTFTDYEMHWIRQPPGEGLEWIGAIDGPTPDTAYSEKFKGRVTLTADKSTSTAYMELSSLTSEDTAVYYCTRFYSYTYWGQGTLVTVSSASTKGPSVFPLAPSSKSTSGGTAALGCLVKDYFPEPVTVSWNSGALTSGVHTFPAVLQSSGLYSLSSVVTVPSSSLGTQTYICNVNHKPSNTKVDKKVEPKSCDKTHTCPPCPAPELRGGPKVFLFPPKPKDTLMISRTPEVTCVVVDVSHEDPEVKFNWYVDGVEVHNAKTKPREEQYASTYRVVSVLTVLHQDWLNGKEYKCKVSNKALPAPIEKTISKAKGQPREPQVYTLPPSREEMTKNQVSLTCLVKGFYPSDIAVEWESNGQPENNYKTTPPYLDSDGSFFLYSKLTVDKSRWQQGNVFSCSVMHEALHNHYTQESLSLSP
light 2: B3 light 1 with S28P
increase rate due to the protease treatment (luciferase, uPA-treated / untreated), antibody 0.1 nM [1]: 1.1 ratio | increase rate due to the protease treatment (luciferase, uPA-treated / untreated), antibody 1 nM [1]: 2.4 ratio

B6: AN121H-F760mnP17/GLS3000-k0 (AN121) (antibody, human IgG1, kappa, N297A, V domains shown)
VH: QVQLVESGGGLVQPGRSLRLSCAASGFTFSNAWMHWVRQAPGKGLEWVAQIKDKANGYNAYYAESVKGRFTISRDDSKNSIYLQMNSLKTEDTAVYYCRYVHYTTYAGFSYKFGVDAWGQGTTVTVSS
VL: DIVMTQSPLSLPVTPGEPASISCRSSQSLVHSNRNTYLHWYQQKPGQAPRLLIYKVSNRFSGVPDRFSGSGSGTDFTLKISRVEAEDVGVYYCGQGTQVPYTFGQGTKLEIKR
Kd (CD3εδ heterodimer): 9.68 nM | koff (CD3εδ heterodimer): 0.000723 s⁻¹ | kon (CD3εδ heterodimer): 74700 M⁻¹ s⁻¹

B7: CE115VH-F760mnP17/GLS3000-k0 (Combination of rat anti-CD3 antibody and human anti-CD3 antibody) (antibody, human IgG1, kappa, N297A, V domains shown)
VH: EVQLVETGGSLVQPGKSLKLTCATSGFTFSNAWMHWVRQSPEKQLEWVAQIKAKSNNYATYYAESVKGRFTISRDDSKSNIYLQMNSLKEEDTAVYYCRYVHYGAYYGVDAWGQGTSVTVSS
VL: B6 VL
Kd (CD3εδ heterodimer): 262 nM | koff (CD3εδ heterodimer): 0.0124 s⁻¹ | kon (CD3εδ heterodimer): 47300 M⁻¹ s⁻¹

Now from value to binder:

Kd (CD3εδ heterodimer): 191 nM | koff (CD3εδ heterodimer): 0.00771 s⁻¹ | kon (CD3εδ heterodimer): 40400 M⁻¹ s⁻¹
B1: CE115VH-F760mnP17/rCE115VL-k0 (Rat anti-CD3 antibody) (antibody, human IgG1, kappa, N297A, V domains shown)
VH: B7 VH
VL: DVVMTQTPVSMSVSLGGQVSISCRSSQSLVHNNGNTYVSWYIQKPSQSPQLLIYKVSNRFSGISDRFSGSGSGTDFTLKISRVEPDDLGVYYCGQGTQDPYTFGAGTKLELKR

increase rate due to the protease treatment (luciferase, uPA-treated / untreated), antibody 0.1 nM [1]: 1.3 ratio | increase rate due to the protease treatment (luciferase, uPA-treated / untreated), antibody 1 nM [1]: 6.3 ratio
B2: hCE115HAuPA04/GLS//GCH065 (bispecific antibody, human IgG1, kappa, N297A)
heavy 1: QDGNEEMGGGSGGGSGGGSLSGRSDNHGGGSQVQLVESGGGVVQPGRSLRLSCAASGFTFSNAWMHWVRQAPGKGLEWVAQIKAKSNNYATYYAESVKGRFTISRDDSKNSLYLQMNSLKTEDTAVYYCRYVHYGAYYGVDAWGQGTTVTVSSASTKGPSVFPLAPSSKSTSGGTAALGCLVKDYFPEPVTVSWNSGALTSGVHTFPAVLQSSGLYSLSSVVTVPSSSLGTQTYICNVNHKPSNTKVDKKVEPKSCDKTHTCPPCPAPELRGGPKVFLFPPKPKDTLMISRTPEVTCVVVDVSHEDPEVKFNWYVDGVEVHNAKTKPREEQYASTYRVVSVLTVLHQDWLNGKEYKCKVSNKALPAPIEKTISKAKGQPREPQVYTLPPSRKEMTKNQVSLTCLVKGFYPSDIAVEWESNGQPENNYKTTPPYLDSDGSFFLYSKLTVDKSRWQQGNVFSCSVMHEALHNHYTQKSLSLSP
light 1: B3 light 1
heavy 2: B3 heavy 2
light 2: B3 light 1 with S28P

binding result [2]: binds
B4: Anti-CD3 antibody Fab fragment (humanized anti-CD3 antibody) (Fab, V domains shown)
VH: QVQLVESGGGVVQPGRSLRLSCAASGFTFSNAWMHWVRQAPGKGLEWVAQIKAKSNNYATYYAESVKGRFTISRDDSKNSLYLQMNSLKTEDTAVYYCRYVHYGAYYGVDAWGQGTTVTVSS
VL: B6 VL
notes: Fab made by papain cleavage of a One-arm antibody

Kd (CD3εδ heterodimer): 556 nM | koff (CD3εδ heterodimer): 0.0288 s⁻¹ | kon (CD3εδ heterodimer): 51800 M⁻¹ s⁻¹
B5: CE115HA000-F760mnP17/GLS3000-k0 (Humanized anti-CD3 antibody) (antibody, human IgG1, kappa, N297A, V domains shown)
VH: B4 VH
VL: B6 VL
